Data on 13 compounds can be found in paper PMC5672839, “A novel peptide stapling strategy enables the retention of ring-closing amino acid side chains for the Wnt/β-catenin signalling pathway” (Chemical Science, 2017).

In general, half-life refers to how long it takes for the measured level to halve.

Series [1] is described as follows: circular dichroism. The conditions noted are these: 10 mM phosphate buffer (captions say PBS); pH 7.4; 25 °C; 50 uM. A general note: CD spectra are sensitive to the conformation of chiral molecules.
Series [2] deals with Wnt/β-catenin dependent transcriptional activity. Nature of the series: Topflash-luciferase reporter, Wnt3a-induced expression. It counts as cell-based. The settings on record: Wnt3a conditioned medium, peptide 40 μM, 12 h; for Wnt3a-induced Topflash reporter expression, comparison in words: HEK293T cells transfected with Topflash-luciferase. The text has this:
We next explored the effects of these peptides on Wnt/β-catenin dependent transcriptional activity. The Topflash reporter, in which firefly luciferase is transcriptionally activated by β-catenin, was employed. […] Con = non-specific control. […] Scale bar: 50 μm.
In general terms: Reporter assays use an easily measured gene product as a stand-in for the process of interest.

The nature of series [3]: Circular dichroism (CD) analysis, percent helicity from [θ]222. The settings on record: peptide 50 μM in phosphate buffer (10 mM, pH 7.4), 25 °C, 1 mm cuvette, calculated from [θ]222. It counts as physicochemical. The procedure: (§1) Con = non-specific control. […] Scale bar: 50 μm.
(§2) The CD spectra were obtained with
(§3) The measurement parameters
(§4) background subtraction. The curves were smoothed using standard parameters. In addition,
(§5) Figure S3. CD spectra of all peptides.
(§6) concentration of 50 μM. The percent helicity was calculated based on the [θ] 222 value.

Series [4] addresses α-chymotrypsin (Bos taurus, UniProt P00766). Nature of the series: Proteolytic stability towards α-chymotrypsin. The settings on record: α-chymotrypsin 5 ng μL^–1 (supplement: 0.5 ng/µL) in 50 mM PBS pH 7.4 with 2 mM CaCl2, peptide 0.1 mM final, room temperature, 1 h, analytical HPLC, duplicate independent experiments.
Protocol: (§7) (c) Proteolytic stability of the peptides (Axin (469–482) vs. WNT-3a) in the α-chymotrypsin solution (5 ng μL^–1 in 50 mM PBS buffer, pH = 7.4) at a final concentration of 0.1 mM. […] The percent of residual peptide was monitored by analytical HPLC.
(§8) To test the protease stability of the stapled peptides with the retention of the side chains, we measured their susceptibility towards α-chymotrypsin-mediated degradation at room temperature in pH 7.4 PBS buffer containing 2 mM of CaCl2 as monitored by HPLC. α-Chymotrypsin is a protease that predominantly cleaves at the carboxyl side of positively charged amino acids such as methionine and leucine.
(§9) The Axin(469-482) and WNT-3a were dissolved in PBS buffer solutions (50 mM, pH =
(§10) 7.4) to a final concentration of 1mM, respectively. α-Chymotrypsin was dissolved in PBS
(§11) buffer (50 mM, containing 2 mM of CaCl2, pH = 7.4) to a final concentration of 0.5 ng/µL.
(§12) Then the peptide solutions (100 µL) were incubated with α-Chymotrypsin solution (1 mL) at
(§13) room temperature. 100 µL of digestion mixture was taken at the 0, 5, 10, 20, 30, 40, and 60
Series [5] relates to HEK 293T/17 cells. Nature of the series: Cell permeability of FITC-labelled peptides by confocal microscopy. It counts as cell-based. The conditions noted are these: FITC–β-Ala–peptide 40 μM (supplement: 10 µM), 16 h, washed with PBS twice, fixed, confocal fluorescence microscopy.
Source text: as §1
We then assessed the cell permeability of the peptides by conjugating fluorescein isothiocyanate (FITC) to Axin (469–482), WNT-3a and WNT-3c (Fig. 3d). […] To explore the detailed binding mode of WNT-3a against β-catenin, we conducted a Z-dock of the WNT-3a–β-catenin complex to predict structural models of the protein–protein complexes.[27] […] Owing to an introduction of the stapling group, Met-481 is closer to the Trp-338 of β-catenin, and thus forms a stronger interaction with that residue. In addition, a stronger salt bridge between the side chain carboxyl group of Asp-474 coordinated with the amino group of β-catenin Lys-292 and a more efficient hydrogen bond between the side chain of His-476 and β-catenin Asp-299 are constructed because of a closer distance geometrically. It is conceivable that these changes enhanced the conformational stability of WNT-3a in its bound state, thereby contributing to the improved binding activity.
as §2, §3, §4, §5, §6

Series [6] is described as follows: in vitro. The settings on record: isolated enzyme chymotrypsin, pH 7.4.
Protocol: as §7, §8, §9, §10, §11, §12, §13

Starred links: 1 amine or outer side, 2 acyl side, 3 side chain; linkers in the order of their positions; H or OH if unused. Positions of bridges follow the written chain, without caps; N, C: chain ends. Non-standard residues stand in square brackets, D forms with d. Residues, ends and D or L forms follow the SMILES beside them. *: point of attachment. FITC = O=C1OC2(c3ccc(O)cc3Oc3cc(O)ccc32)c2ccc(NC(=S)*)cc21; X2 = CC(C)C[C@](CCCC=[*:3])(N[*:1])C(=O)[*:2]; X6 = NCCCC[C@](CCCC=[*:3])(N[*:1])C(=O)[*:2]; X1 = CSCC[C@](CCCC=[*:3])(N[*:1])C(=O)[*:2]; X3 = O=C([C@@](CO)(CCCC=[*:3])N[*:1])[*:2]; X5 = C=CCCC[C@@](CC(C)C)(N[*:1])C(=O)[*:2]; X4 = C=CCCC[C@@](CCSC)(N[*:1])C(=O)[*:2]; R5 = C=CCCC[C@@](C)(N)C(=O)O; S5 = C=CCCC[C@](C)(N)C(=O)O; βAla = NCCC(=O)O

Take `CC[C@H](C)[C@@H]1NC(=O)[C@](CO)(NC(=O)[C@H](CCC(=O)O)NC(=O)[C@@H]2CCCN2C(C)=O)CCCC=CCCC[C@](C)(C(=O)N[C@@H](Cc2c[nH]cn2)C(=O)N[C@H](C(=O)N[C@@H](CCC(N)=O)C(=O)N[C@@H](CCCNC(=N)N)C(=O)N[C@H](C(=O)N[C@@H](CCSC)C(=O)N[C@@H](CCCCN)C(N)=O)C(C)C)C(C)C)NC(=O)[C@H](CC(=O)O)NC(=O)[C@H](CC(C)C)NC1=O` (Ac-PE[X3]ILD[R5]HVQRVMK-NH2; staple 3-7): the helicity in series [1] came to 24.8%. Turning to `CC[C@H](C)[C@H](NC(=O)[C@H](CO)NC(=O)[C@H](CCC(=O)O)NC(=O)[C@@H]1CCCN1C(C)=O)C(=O)N[C@]1(CC(C)C)CCCC=CCCC[C@@](C)(C(=O)N[C@H](C(=O)N[C@@H](CCC(N)=O)C(=O)N[C@@H](CCCNC(=N)N)C(=O)N[C@H](C(=O)N[C@@H](CCSC)C(=O)N[C@@H](CCCCN)C(N)=O)C(C)C)C(C)C)NC(=O)[C@H](CCC(=O)O)NC(=O)[C@H](CC(=O)O)NC1=O` [WNT-6a] (Ac-PESI[X2]DE[S5]VQRVMK-NH2; staple 5-8), the helicity in series [1] came to 70.9%. For the same compound, the “Wnt3a-induced Topflash reporter expression, comparison in words” value in series [2] is on record as “enhanced the Wnt3a-induced reporter expression more effectively than Axin (469–482)”. Also, the “fold enhancement of Wnt3a-induced reporter expression” value in series [2] (HEK293T cells, Topflash-luciferase, compared with Axin (469–482)) was “three-fold enhancement”. In addition, the α-Helicity in series [3] was 70.87%.

Compound `CC[C@H](C)[C@@H]1NC(=O)[C@](C)(NC(=O)[C@H](CCC(=O)O)NC(=O)[C@@H]2CCCN2C(C)=O)CCCC=CCCC[C@@](C)(C(=O)N[C@@H](CCC(=O)O)C(=O)N[C@@H](Cc2c[nH]cn2)C(=O)N[C@H](C(=O)N[C@@H](CCC(N)=O)C(=O)N[C@@H](CCCNC(=N)N)C(=O)N[C@H](C(=O)N[C@@H](CCSC)C(=O)N[C@@H](CCCCN)C(N)=O)C(C)C)C(C)C)NC(=O)[C@H](CC(C)C)NC1=O` (Ac-PE[R5]IL[S5]EHVQRVMK-NH2; staple 3-6) returned a helicity in series [1] of 40%.

Compound `CC[C@H](C)[C@H](NC(=O)[C@H](CO)NC(=O)[C@H](CCC(=O)O)NC(=O)[C@@H]1CCCN1C(C)=O)C(=O)N[C@@H](CC(C)C)C(=O)N[C@@H](CC(=O)O)C(=O)N[C@@H](CCC(=O)O)C(=O)N[C@@H](Cc1c[nH]cn1)C(=O)N[C@]1(C)CCCC=CCCC[C@](CCSC)(C(=O)N[C@@H](CCCCN)C(N)=O)NC(=O)[C@H](C(C)C)NC(=O)[C@H](CCCNC(=N)N)NC(=O)[C@H](CCC(N)=O)NC1=O` [WNT-3a] (Ac-PESILDEH[R5]QRV[X1]K-NH2; staple 9-13) had a helicity in series [1] of 42.3%. In addition, in series [4], the “degradation by α-chymotrypsin” value is “completely stable and no degradation was observed even after 1 h”. `CC[C@H](C)[C@@H]1NC(=O)[C@](CO)(NC(=O)[C@H](CCC(=O)O)NC(=O)[C@@H]2CCCN2C(C)=O)CCCC=CCCC[C@@](C)(C(=O)N[C@@H](CCC(=O)O)C(=O)N[C@@H](Cc2c[nH]cn2)C(=O)N[C@H](C(=O)N[C@@H](CCC(N)=O)C(=O)N[C@@H](CCCNC(=N)N)C(=O)N[C@H](C(=O)N[C@@H](CCSC)C(=O)N[C@@H](CCCCN)C(N)=O)C(C)C)C(C)C)NC(=O)[C@H](CC(C)C)NC1=O` (Ac-PE[X3]IL[S5]EHVQRVMK-NH2; staple 3-6) displayed a helicity in series [1] of 51.3%.

In turn, `CC[C@H](C)[C@H](NC(=O)[C@H](CO)NC(=O)[C@H](CCC(=O)O)NC(=O)[C@@H]1CCCN1C(C)=O)C(=O)N[C@]1(C)CCCC=CCCC[C@@](C)(C(=O)N[C@H](C(=O)N[C@@H](CCC(N)=O)C(=O)N[C@@H](CCCNC(=N)N)C(=O)N[C@H](C(=O)N[C@@H](CCSC)C(=O)N[C@@H](CCCCN)C(N)=O)C(C)C)C(C)C)NC(=O)[C@H](CCC(=O)O)NC(=O)[C@H](CC(=O)O)NC1=O` (Ac-PESI[R5]DE[S5]VQRVMK-NH2; staple 5-8) showed a helicity in series [1] of 36.8%. For the compound `C=CCCC[C@@](CCSC)(NC(=O)[C@@H](NC(=O)[C@H](CCCNC(=N)N)NC(=O)[C@](C)(CCCC=C)NC(=O)[C@@H](NC(=O)[C@H](Cc1c[nH]cn1)NC(=O)[C@H](CCC(=O)O)NC(=O)[C@H](CC(=O)O)NC(=O)[C@H](CC(C)C)NC(=O)[C@@H](NC(=O)[C@H](CO)NC(=O)[C@H](CCC(=O)O)NC(=O)[C@@H]1CCCN1C(C)=O)[C@@H](C)CC)C(C)C)C(C)C)C(=O)N[C@@H](CCCCN)C(N)=O` (Ac-PESILDEHV[S5]RV[X4]K-NH2), the helicity in series [1] stood at 49.9%. The compound `CC[C@H](C)[C@H](NC(=O)[C@H](CO)NC(=O)[C@H](CCC(=O)O)NC(=O)[C@@H]1CCCN1C(C)=O)C(=O)N[C@@H](CC(C)C)C(=O)N[C@@H](CC(=O)O)C(=O)N[C@@H](CCC(=O)O)C(=O)N[C@@H](Cc1c[nH]cn1)C(=O)N[C@]1(C)CCCC=CCCC[C@](C)(C(=O)N[C@@H](CCCCN)C(N)=O)NC(=O)[C@H](C(C)C)NC(=O)[C@H](CCCNC(=N)N)NC(=O)[C@H](CCC(N)=O)NC1=O` (Ac-PESILDEH[R5]QRV[R5]K-NH2; staple 9-13) returned a helicity in series [1] of 35.4%. In the case of `CC[C@H](C)[C@H](NC(=O)[C@H](CO)NC(=O)[C@H](CCC(=O)O)NC(=O)[C@@H]1CCCN1C(C)=O)C(=O)N[C@@H](CC(C)C)C(=O)N[C@@H](CC(=O)O)C(=O)N[C@@H](CCC(=O)O)C(=O)N[C@@H](Cc1c[nH]cn1)C(=O)N[C@H](C(=O)N[C@@H](CCC(N)=O)C(=O)N[C@@]1(C)CCCC=CCCC[C@](CCCCN)(C(N)=O)NC(=O)[C@H](CCSC)NC(=O)[C@H](C(C)C)NC1=O)C(C)C` [WNT-8a] (Ac-PESILDEHVQ[S5]VM[X6]-NH2; staple 11-14), the “Wnt3a-induced Topflash reporter expression, comparison in words” value in series [2] was “enhanced the Wnt3a-induced reporter expression more effectively than Axin (469–482)”. As for `CC[C@H](C)[C@H](NC(=O)[C@H](CO)NC(=O)[C@H](CCC(=O)O)NC(=O)[C@@H]1CCCN1C(=O)CCNC(=S)Nc1ccc2c(c1)C(=O)OC21c2ccc(O)cc2Oc2cc(O)ccc21)C(=O)N[C@@H](CC(C)C)C(=O)N[C@@H](CC(=O)O)C(=O)N[C@@H](CCC(=O)O)C(=O)N[C@@H](Cc1c[nH]cn1)C(=O)N[C@H](C(=O)N[C@@H](CCC(N)=O)C(=O)N[C@@H](CCCNC(=N)N)C(=O)N[C@H](C(=O)N[C@@H](CCSC)C(=O)N[C@@H](CCCCN)C(N)=O)C(C)C)C(C)C` [FITC–β-Ala–Axin (469–482)] ({FITC-βAla}-PESILDEHVQRVMK-NH2), the “cell permeability” value in series [5] is “also penetrated the cell membrane”.

Regarding Ac-PESILDEHVQRVMK-NH2 [Axin (469–482)], the half-life at 0.1 mM in series [6] turned out to be 9 min. The compound further came in with a helicity in series [1] of 19.6%. The compound `CC[C@H](C)[C@H](NC(=O)[C@H](CO)NC(=O)[C@H](CCC(=O)O)NC(=O)[C@@H]1CCCN1C(C)=O)C(=O)N[C@@H](CC(C)C)C(=O)N[C@@H](CC(=O)O)C(=O)N[C@@H](CCC(=O)O)C(=O)N[C@@H](Cc1c[nH]cn1)C(=O)N[C@@]1(C)CCCC=CCCC[C@@](C)(C(=O)N[C@@H](CCCCN)C(N)=O)NC(=O)[C@H](C(C)C)NC(=O)[C@H](CCCNC(=N)N)NC(=O)[C@H](CCC(N)=O)NC1=O` (Ac-PESILDEH[S5]QRV[S5]K-NH2; staple 9-13) gave a helicity in series [1] of 64.7%. The same measure, in the same setting: the value for `C=CCCC[C@@](CC(C)C)(NC(=O)[C@@H](NC(=O)[C@H](CO)NC(=O)[C@H](CCC(=O)O)NC(=O)[C@@H]1CCCN1C(C)=O)[C@@H](C)CC)C(=O)N[C@@H](CC(=O)O)C(=O)N[C@@H](CCC(=O)O)C(=O)N[C@@H](Cc1c[nH]cn1)C(=O)N[C@](C)(CCCC=C)C(=O)N[C@@H](CCC(N)=O)C(=O)N[C@@H](CCCNC(=N)N)C(=O)N[C@H](C(=O)N[C@@H](CCSC)C(=O)N[C@@H](CCCCN)C(N)=O)C(C)C` (Ac-PESI[X5]DEH[R5]QRVMK-NH2) was 21.6%.
